Reference: patent US20090186811A1, “Y2 Selective Receptor Agonists for Therapeutic Interventions” (priority 2004, published 2009)
Non-standard residues stand in square brackets, D forms with d. Primed or numbered codes have the meaning given here. No end group written: not given here. Aoc′ = not defined here

Legend:
[1] = target: human Y4 receptor (human), P50391; test: competition binding, 125I-PP displaced, COS-7 cells with human Y4
[2] = target: human Y4 receptor (human), P50391; test: cell-based or functional assay
[3] = target: T1, human Y1 receptor (human), P25929; test: cell-based or functional assay
T1 chain: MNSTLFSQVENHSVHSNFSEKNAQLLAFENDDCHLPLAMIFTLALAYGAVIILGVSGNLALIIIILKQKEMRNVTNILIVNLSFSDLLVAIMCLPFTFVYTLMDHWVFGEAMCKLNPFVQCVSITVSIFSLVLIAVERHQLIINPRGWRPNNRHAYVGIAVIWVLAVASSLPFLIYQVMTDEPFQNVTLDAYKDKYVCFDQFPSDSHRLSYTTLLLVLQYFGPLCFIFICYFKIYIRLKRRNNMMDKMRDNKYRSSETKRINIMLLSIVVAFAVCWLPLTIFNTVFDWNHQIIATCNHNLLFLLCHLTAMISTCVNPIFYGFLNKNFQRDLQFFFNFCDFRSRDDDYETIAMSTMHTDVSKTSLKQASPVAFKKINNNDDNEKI

[4] = target: T2, human Y5 receptor (human), Q15761; test: cell-based or functional assay
T2 chain: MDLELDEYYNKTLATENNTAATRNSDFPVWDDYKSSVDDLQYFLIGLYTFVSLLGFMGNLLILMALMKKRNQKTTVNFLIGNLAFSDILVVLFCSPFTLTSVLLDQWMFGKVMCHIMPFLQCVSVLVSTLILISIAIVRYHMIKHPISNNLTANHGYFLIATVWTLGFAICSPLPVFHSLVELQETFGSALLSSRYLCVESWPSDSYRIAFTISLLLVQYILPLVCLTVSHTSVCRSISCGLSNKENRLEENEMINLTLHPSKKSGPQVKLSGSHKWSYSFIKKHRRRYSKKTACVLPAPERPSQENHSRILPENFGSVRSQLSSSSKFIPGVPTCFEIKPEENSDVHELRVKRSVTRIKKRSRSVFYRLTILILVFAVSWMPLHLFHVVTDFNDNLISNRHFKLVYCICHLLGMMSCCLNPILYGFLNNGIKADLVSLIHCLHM

[5] = target: T3, human Y2 receptor (human), P49146; test: cell-based or functional assay
T3 chain: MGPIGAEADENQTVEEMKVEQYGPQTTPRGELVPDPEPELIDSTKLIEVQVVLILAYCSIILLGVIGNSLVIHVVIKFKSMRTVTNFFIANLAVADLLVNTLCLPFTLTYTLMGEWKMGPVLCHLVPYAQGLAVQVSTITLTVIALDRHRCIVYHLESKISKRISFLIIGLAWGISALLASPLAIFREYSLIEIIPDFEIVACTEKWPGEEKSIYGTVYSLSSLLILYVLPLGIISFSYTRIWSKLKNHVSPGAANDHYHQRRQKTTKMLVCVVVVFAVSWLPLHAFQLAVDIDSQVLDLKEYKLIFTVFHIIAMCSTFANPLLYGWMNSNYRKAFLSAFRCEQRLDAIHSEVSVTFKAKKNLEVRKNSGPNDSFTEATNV

[6] = target: T3, human Y2 receptor (human), P49146; test: competition binding, 125I-PYY displaced, COS-7 cells with human Y2

Chain of human Y4 receptor (human), P50391 (P50391 whole entry): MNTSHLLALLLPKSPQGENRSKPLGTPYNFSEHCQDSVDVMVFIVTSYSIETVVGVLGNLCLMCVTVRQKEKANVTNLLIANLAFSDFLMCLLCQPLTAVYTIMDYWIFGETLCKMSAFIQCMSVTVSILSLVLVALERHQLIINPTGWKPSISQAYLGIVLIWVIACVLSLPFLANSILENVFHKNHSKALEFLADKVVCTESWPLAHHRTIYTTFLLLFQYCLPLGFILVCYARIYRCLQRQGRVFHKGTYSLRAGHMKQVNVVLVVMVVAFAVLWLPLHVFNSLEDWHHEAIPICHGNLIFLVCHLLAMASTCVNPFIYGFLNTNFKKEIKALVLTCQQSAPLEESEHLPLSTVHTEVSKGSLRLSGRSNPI

IC50 [1]: 267 nM
EC50 (inositol phosphate turnover) [2]: > 1000 nM
EC50 (inositol phosphate turnover) [3]: > 1000 nM
EC50 (inositol phosphate turnover) [4]: > 1000 nM
EC50 (inositol phosphate turnover) [5]: 3.7 nM
IC50 [6]: 0.87 nM
Binder: YCIK[Aoc′]RH[dC]LNLVTRQRY (cysteine pairing not given here; reading uncertain) [[Cys2, Aoc5-24, D-Cys27]PYY]
